Source: patent US20230399394A1 (SUNSHINE GUOJIAN PHARMACEUTICAL SHANGHAI, published 2023)

T1: Human IL-33-his (human, UniProt O95760 112-270, biotinylated with EZ-Link NHS-Biotin where used as IL-33-his-biotin)
T1 construct: Used plain (SPR, cell assays) and biotinylated (ELISA); also called IL-33-his-biotin
T1 sequence: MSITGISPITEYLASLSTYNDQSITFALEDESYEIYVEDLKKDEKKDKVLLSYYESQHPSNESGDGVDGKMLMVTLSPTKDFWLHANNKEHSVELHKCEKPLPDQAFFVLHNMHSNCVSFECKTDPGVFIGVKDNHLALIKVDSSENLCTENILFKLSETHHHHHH

T2: IL-33 mutant protein Q57A (human, UniProt O95760 112-270)
T2 construct: Prokaryotic expression
T2 chain: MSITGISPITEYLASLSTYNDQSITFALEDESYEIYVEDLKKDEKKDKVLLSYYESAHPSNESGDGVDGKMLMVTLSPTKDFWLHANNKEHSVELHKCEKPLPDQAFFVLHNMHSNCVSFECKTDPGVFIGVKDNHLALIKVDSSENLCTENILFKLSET

T3: IL-33 mutant protein L50A (human, UniProt O95760 112-270)
T3 construct: Prokaryotic expression
T3 chain: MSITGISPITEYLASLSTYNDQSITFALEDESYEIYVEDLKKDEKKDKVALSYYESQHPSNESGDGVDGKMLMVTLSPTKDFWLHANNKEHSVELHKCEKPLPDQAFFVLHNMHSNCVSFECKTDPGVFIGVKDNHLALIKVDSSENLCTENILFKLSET

T4: IL-33 mutant protein E55A (human, UniProt O95760 112-270)
T4 construct: Prokaryotic expression
T4 chain: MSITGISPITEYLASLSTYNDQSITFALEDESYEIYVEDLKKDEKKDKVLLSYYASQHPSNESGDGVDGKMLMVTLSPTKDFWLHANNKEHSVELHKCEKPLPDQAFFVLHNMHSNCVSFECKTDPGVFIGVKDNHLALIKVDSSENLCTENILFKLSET

T5: IL-33 mutant protein N61A (human, UniProt O95760 112-270)
T5 chain: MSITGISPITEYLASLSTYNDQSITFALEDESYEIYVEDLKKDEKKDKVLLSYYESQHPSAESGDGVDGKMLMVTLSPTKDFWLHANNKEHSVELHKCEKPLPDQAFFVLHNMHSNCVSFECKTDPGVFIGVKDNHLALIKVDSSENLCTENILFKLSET

T6: IL-33 mutant protein E62A (human, UniProt O95760 112-270)
T6 construct: Prokaryotic expression
T6 chain: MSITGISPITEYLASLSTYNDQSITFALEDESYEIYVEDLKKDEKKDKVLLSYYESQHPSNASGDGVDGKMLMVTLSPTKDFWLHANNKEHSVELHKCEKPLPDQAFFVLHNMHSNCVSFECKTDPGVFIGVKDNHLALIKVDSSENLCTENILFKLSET

T7: IL-33 mutant protein Y53A (human, UniProt O95760 112-270)
T7 construct: Prokaryotic expression
T7 chain: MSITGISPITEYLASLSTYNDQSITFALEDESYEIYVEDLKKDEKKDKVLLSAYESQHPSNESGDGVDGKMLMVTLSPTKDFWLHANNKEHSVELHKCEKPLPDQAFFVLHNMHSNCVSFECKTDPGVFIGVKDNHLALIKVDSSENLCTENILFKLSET


Columns and labels:
[1] = target: T1, Human IL-33-his; test: indirect ELISA, biotinylated IL-33-his on streptavidin plate
Description: The binding ability of murine antibody to human IL-33 protein was determined by indirect enzyme-linked immunosorbent assay (ELISA). The specific methods were as follows: The plate was pre-coated with biotin-avidin (SA) which was diluted in coating solution (50 mM carbonate coating buffer, pH 9.6) to 2 μg/ml at 4° C. overnight, then the plate was blocked with 5% skim milk powder at 37° C. for 2 hours and stored at −80° C. for later use. Biotinylated recombinant human IL-33-his protein was diluted to 0.5 μg/ml in coating solution (50 mM carbonate coating buffer, pH 9.6) and was added at 100 μl/well to the pre-coated SA plate, 37° C., 0.5 h. After washing the plate with PBST for 3 times, the antibodies to be tested were diluted by gradient with 1% BSA buffer and added into the blocked plate at 100 μl/well, and incubated at 37° C. for 1 hour. The plate was washed with PBST for 3 times, and the HRP-labeled goat anti-mouse IgG was added and placed at 37° C. for 30 min. After washing the plate with PBST for 3 times, the plate was patted on the absorbent paper to remove residual droplets as far as possible. […] OD values were read at 450 nm on the microplate reader to analyze the binding ability of the antibodies to be tested to the target antigen human IL-33-his.

[2] = target: T2, IL-33 mutant protein Q57A; test: ELISA as Example 9; row Q57A against WT-1
Description: (§1) SA protein was diluted to 2 μg/mL to coat ELISA plate at 100 μL/well overnight at 4° C. The plate was washed with PBST (PBS containing 0.05% Tween20) for 3 times, and blocked with 2% BSA prepared in PBS at 200 μL/well, at room temperature for 2 h. After the plate was washed twice with PBST, IL-33-his-biotin protein was diluted to 1 μg/mL with 1% BSA prepared in PBST, and was added to ELISA plate at 100 μL/well. The plate was incubated at room temperature for 1 h, and each monoclonal antibody was diluted with 1% BSA prepared in PBST in a 3-fold gradient. The highest concentration of antibody was 10 μg/mL, and the antibody was diluted for 12 gradients. Each diluted monoclonal antibody was added to ELISA wells with 100 μL/well, and the plate was incubated at room temperature for 1 h. Each sample was added to duplicate wells in parallel. The plate was washed with PBST for 3 times, and HRP-anti human IgG Fc secondary antibody prepared with PBST was diluted at an appropriate ratio, and was added to ELISA wells at 100 μL/well. […] Each reaction solution was shaken uniformly and OD450 nm was read on a microplate reader. The data was analyzed and EC₅₀ was calculated.
(§2) Subsequently, according to the experimental method of Example 9, the affinity of the above mutant proteins to 874F7-Hu1 was determined, and IL-33 proteins (WT-1, WT-2, WT-3, and WT-4) without any mutation were set as controls.

[3] = target: T3, IL-33 mutant protein L50A; test: ELISA as Example 9; row L50A against WT-4
Description: as §1, §2

[4] = target: T4, IL-33 mutant protein E55A; test: ELISA as Example 9; row E55A against WT-2
Description: as §1, §2

[5] = target: T5, IL-33 mutant protein N61A; test: ELISA as Example 9; row N61A
Description: as §1, §2

[6] = target: T6, IL-33 mutant protein E62A; test: ELISA as Example 9; row E62A against WT-3
Description: as §1, §2

[7] = target: T7, IL-33 mutant protein Y53A; test: ELISA as Example 9; row Y53A against WT-2
Description: as §1, §2

| Binder | EC50 [1] [nM] | Affinity decline ratio [2] [fold] | Affinity decline ratio [3] [fold] | Affinity decline ratio [4] [fold] | EC50 [5] [nM] | Affinity decline ratio [6] [fold] | Affinity decline ratio [7] [fold] |
| --- | --- | --- | --- | --- | --- | --- | --- |
| 874F7 (antibody, V domains shown, Murine hybridoma antibody purified on Protein G; also called murine antibody 874F7) VH: QVQLKESGPGLVAPSHSLSITCNVSGFSLSKYGVHWIRQIPGRGLDWLGVLRAGGSTGYNSALMSRLSISKDSSKSQVFLKMNDLRTDDTAVYFCVRDHYYYSSYGGFVYWGQGTLVTVSA VL: DIQMTQSPASQSASLGESVTITCLASQTIGAWLAWYRQQPGKSPQLLIYAATRLADGVPSRFSGSGSGTEFSFKINNLQAEDFVSYYCQQLDSSPYTFGGGTRLEM | 0.11 | – | – | – | – | – | – |
| 874F7-Hu1 (antibody, human IgG4 S228P, kappa, also called 874F7-Hul; humanized antibody 874F7-Hu1) heavy: not shown light: DIQMTQSPSSVSASVGDRVTITCLASQTIGAWLAWYQQKPGKSPKLLIYAATRLADGVPSRFSGSGSGTDFTLTISSLQPEDFATYYCQQLDSSPYTFGQGTKVEIKRTVAAPSVFIFPPSDEQLKSGTASVVCLLNNFYPREAKVQWKVDNALQSGNSQESVTEQDSKDSTYSLSSTLTLSKADYEKHKVYACEVTHQGLSSPVTKSFNRGEC | – | 0.5 | 28.5 | 2.5 | 0.15 | 0.8 | 3.3 |
